Test results taken from PMC7497161.
*1 amine or outer side, *2 acyl side, *3 side chain or, on linkers, in order; H or OH if unused. Where no end group is shown, it is not given here. [ ]: non-standard residue; d: D form. Dap(Dnp) = diaminopropionic acid carrying a 2,4-dinitrophenyl quencher, O=C([C@H](CNc1ccc([N+](=O)[O-])cc1[N+](=O)[O-])N[*:1])[*:2]; 2Abz = Nc1ccccc1C(=O)O

Molecular target: circularly permuted Caspase-2 double mutant Asp323Thr/His226Ala (human) (UniProt P42575)
UniProt P42575, sequence (P42575 whole entry H226A/D323T): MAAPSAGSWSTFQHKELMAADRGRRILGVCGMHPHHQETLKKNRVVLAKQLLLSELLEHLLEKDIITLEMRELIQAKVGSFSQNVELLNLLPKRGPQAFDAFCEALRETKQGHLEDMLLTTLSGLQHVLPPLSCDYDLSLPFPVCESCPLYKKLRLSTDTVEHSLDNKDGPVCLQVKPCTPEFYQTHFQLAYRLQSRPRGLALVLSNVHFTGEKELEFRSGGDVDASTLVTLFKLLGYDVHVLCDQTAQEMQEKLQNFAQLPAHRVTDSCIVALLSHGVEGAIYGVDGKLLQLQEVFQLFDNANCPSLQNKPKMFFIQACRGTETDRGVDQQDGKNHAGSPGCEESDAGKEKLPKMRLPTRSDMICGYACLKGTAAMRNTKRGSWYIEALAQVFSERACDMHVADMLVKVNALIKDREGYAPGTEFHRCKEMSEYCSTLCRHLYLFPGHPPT

In order of falling K M (Michaelis-Menten kinetics, FRET peptide-based cleavage assay, 1 μM enzyme):
1. [2Abz]VDVADLA-{Dap(Dnp)} [Abz-VDVAD-LA-Dap(Dnp)]  193 µM
2. [2Abz]VDVADTA-{Dap(Dnp)} [Abz-VDVAD-TA-Dap(Dnp)]  82 µM
3. [2Abz]VDVADVA-{Dap(Dnp)} [Abz-VDVAD-VA-Dap(Dnp)]  77 µM
4. [2Abz]VDVADAA-{Dap(Dnp)} [Abz-VDVAD-AA-Dap(Dnp)]  57 µM
5. [2Abz]VDVADGA-{Dap(Dnp)} [Abz-VDVAD-GA-Dap(Dnp)]  55 µM
6. [2Abz]VDVADPA-{Dap(Dnp)} [Abz-VDVAD-PA-Dap(Dnp)]  43 µM
